Test results: PMC7054286, “Functional Characterization of the Arabidopsis Abscisic Acid Transporters NPF4.5 and NPF4.6 in Xenopus Oocytes” (Frontiers in Plant Science, 2020)

B1: NPF4.5 (Arabidopsis thaliana) (protein)
chain: MEVEMHGDVSKWEGYADWRNKAALRGRHGGMLAASFVLAVEILENLAFLANASNLVLYLKNFMHMSLARSSSEVTTFMATAFLLALLGGFLADAFFSTFVIFLISASIEFLGLILLTIQARRPSLMPPPCKSSAALRCEVVGGSKAAFLFVGLYLVSLGIGGIKGSLPSHGAEQFDEGTPKGRKQRSTFFNYYVFCLSCGALVAVTFVVWIEDNKGWEWGFGVSTISIFLSILVFLLGSRFYKNKIPRGSPLTTIFKVLLAASIVSCSSKTSSNHFTSREVQSEHEEKTPSQSLTNSLTCLNKAIEGKTHHIWLECTVQQVEDVKIVLKMLPIFGCTIMLNCCLAQLSTYSVHQAATMNRKIVNFNVPSASLPVFPVVFMLILAPTYDHLIIPFARKVTKSEIGITHLQRIGVGLVLSIVAMAVAALVELKRKQVAREAGLLDSEETLPITFLWIALQYLFLGSADLFTLAGLLEFFFTEAPSSMRSLATSLSWASLALGYYLSSVMVPIVNRVTKSAGQSPWLGEKLNRNRLDLFYWLMCVLSVVNFLHYLFWAKRYKYISTGSIS
notes: full CDS (ABRC, pENTR223) in pGEM-GWC; cRNA-injected Xenopus oocytes; tag not given
B2: NPF4.6 (Arabidopsis thaliana) (protein)
chain: MEVEEEVSRWEGYADWRNRAAVKGRHGGMLAASFVLVVEILENLAYLANASNLVLYLREYMHMSPSKSANDVTNFMGTAFLLALLGGFLSDAFFSTFQIFLISASIEFLGLIILTIQARTPSLMPPSCDSPTCEEVSGSKAAMLFVGLYLVALGVGGIKGSLASHGAEQFDESTPKGRKQRSTFFNYFVFCLACGALVAVTFVVWLEDNKGWEWGFGVSTIAIFVSILIFLSGSRFYRNKIPCGSPLTTILKVLLAASVKCCSSGSSSNAVASMSVSPSNHCVSKGKKEVESQGELEKPRQEEALPPRAQLTNSLKVLNGAADEKPVHRLLECTVQQVEDVKIVLKMLPIFACTIMLNCCLAQLSTFSVQQAASMNTKIGSLKIPPASLPIFPVVFIMILAPIYDHLIIPFARKATKTETGVTHLQRIGVGLVLSILAMAVAALVEIKRKGVAKDSGLLDSKETLPVTFLWIALQYLFLGSADLFTLAGLLEYFFTEAPSSMRSLATSLSWASLAMGYYLSSVIVSIVNSITGSSGNTPWLRGKSINRYKLDYFYWLMCVLSAANFLHYLFWAMRYKYRSTGSRS
notes: full CDS (pDONR207) in pGEM-GWC; cRNA-injected Xenopus oocytes; tag not given

Substrate: CC1=CC(=O)CC(C)(C)[C@@]1(O)/C=C/C(C)=C\C(=O)O
Experiment: cells, lysate or membranes
Type: cell-based, Arabidopsis thaliana
Conditions: pH 6.0, ND96, 0-5 μM ABA, labelled compound (10% 3H-ABA, 90% cold), apparent Km

| Protein | Km |
| --- | --- |
| B1 | 0.522 ± 0.041 µM |
| B2 | 0.452 ± 0.025 µM |
